Test results: US20200255483A1

Key:
[1] = target: RAS proteins (endogenous, in cells); assay: cell-based or functional assay
[2] = target: diphtheria toxin receptor (heparin-binding epidermal growth factor-like growth factor, HB-EGF) on Vero cells (UniProt Q09118); assay: cell-based or functional assay

RRSP-APD-Δdta-dtB (enzyme)
EC50 of loss of RAS proteins in HeLa cells (immunoblot) [1]: 1 pM
potency of RAS loss in HeLa cells against RRSP-dta-dtB [1]: 300 fold

RRSP-dta-dtB (enzyme)
EC50 of loss of total RAS proteins in HeLa cells after 24 h (immunoblot with anti-RAS antibody) [1]: 250 pM

RRSP-Δdta-dtB (enzyme)
EC50 of loss of RAS proteins in HeLa cells (immunoblot) [1]: 1 pM
potency of RAS loss in HeLa cells against RRSP-dta-dtB [1]: 300 fold

dtA-eGFP-dta-dtB
EC50 of inhibition of protein synthesis (3H-leucine incorporation) in Vero cells, in the presence of 1 nM nontoxic DT [2]: 215 pM
EC50 of inhibition of protein synthesis (3H-leucine incorporation) in Vero cells, without competitor [2]: 3.8 pM
